The target in this test is KAT2-CFP (Arabidopsis thaliana, UniProt Q38849 1-697). The test is described as follows: cell-based or functional assay.
KAT2-CFP, sequence (Q38849 whole entry): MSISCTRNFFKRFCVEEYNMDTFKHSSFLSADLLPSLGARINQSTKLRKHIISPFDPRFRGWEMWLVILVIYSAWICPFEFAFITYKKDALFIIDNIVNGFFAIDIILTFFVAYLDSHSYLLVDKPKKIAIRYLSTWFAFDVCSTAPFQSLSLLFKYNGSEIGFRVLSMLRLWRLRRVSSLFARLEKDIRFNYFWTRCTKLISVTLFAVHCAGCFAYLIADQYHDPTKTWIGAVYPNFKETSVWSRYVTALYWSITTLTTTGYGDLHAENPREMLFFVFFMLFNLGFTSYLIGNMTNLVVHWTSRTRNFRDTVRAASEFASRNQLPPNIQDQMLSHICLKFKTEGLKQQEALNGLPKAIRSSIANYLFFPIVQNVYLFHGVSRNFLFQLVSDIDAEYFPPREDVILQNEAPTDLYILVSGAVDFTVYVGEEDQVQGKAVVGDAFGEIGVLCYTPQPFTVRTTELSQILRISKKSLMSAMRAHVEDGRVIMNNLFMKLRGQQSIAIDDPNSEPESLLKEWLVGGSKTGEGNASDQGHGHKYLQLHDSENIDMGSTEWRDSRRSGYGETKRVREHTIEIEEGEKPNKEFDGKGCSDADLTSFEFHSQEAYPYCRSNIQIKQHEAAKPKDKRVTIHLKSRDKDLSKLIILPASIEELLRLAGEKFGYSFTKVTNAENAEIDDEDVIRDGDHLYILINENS

B1: AtCPK6-YFP (enzyme, Arabidopsis thaliana, UniProt Q38872 1-544, looked up)
chain: MGNSCRGSFKDKIYEGNHSRPEENSKSTTTTVSSVHSPTTDQDFSKQNTNPALVIPVKEPIMRRNVDNQSYYVLGHKTPNIRDLYTLSRKLGQGQFGTTYLCTDIATGVDYACKSISKRKLISKEDVEDVRREIQIMHHLAGHKNIVTIKGAYEDPLYVHIVMELCAGGELFDRIIHRGHYSERKAAELTKIIVGVVEACHSLGVMHRDLKPENFLLVNKDDDFSLKAIDFGLSVFFKPGQIFKDVVGSPYYVAPEVLLKHYGPEADVWTAGVILYILLSGVPPFWAETQQGIFDAVLKGYIDFDTDPWPVISDSAKDLIRKMLCSSPSERLTAHEVLRHPWICENGVAPDRALDPAVLSRLKQFSAMNKLKKMALKVIAESLSEEEIAGLRAMFEAMDTDNSGAITFDELKAGLRRYGSTLKDTEIRDLMEAADVDNSGTIDYSEFIAATIHLNKLEREEHLVSAFQYFDKDGSGYITIDELQQSCIEHGMTDVFLEDIIKEVDQDNDGRIDYEEFVAMMQKGNAGVGRRTMKNSLNISMRDV
With B1, the “KAT2 currents at hyperpolarized potentials (TEVC) in Xenopus laevis oocytes co-expressing KAT2 and AtCPK6, against KAT2 alone” value amounted to 2 fold.
